Common to all, as to format: biochemical
A short description of data set [1]: HTP-analysis of yeast culture supernatants, no challenge (MUGal hydrolysis). To be noted: activity of the variant/activity of Rd4BB (SEQ ID NO: 15). In short, it runs like this: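 Activity read as 4-methylumbelliferyl α-D-galactopyranoside hydrolysis: fluorescence (355/448 nm) after sodium carbonate stop, following 30-180 min at 37° C with 2 mM MUGal stock at pH 4.6–4.8. Enzyme source is unchallenged culture supernatant of INVSc1 yeast expressing GLA variants, grown 66-84 h at 30° C.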

Data set [2] is described as follows: HTP-analysis of supernatants pretreated with acid (MUGal hydrolysis). To be noted: activity of the variant/activity of Rd4BB (SEQ ID NO: 15); challenge at pH 3.7. In short, it runs like this:
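Supernatants from INVSc1 yeast secreting GLA variants were challenged at 37° C. for 1-3 h in McIlvaine buffer at pH 3.3-4.3. Residual activity was then measured on 4 mM MUGal substrate stock at pH 4.8 with citrate buffer pH 4.3, over 30-180 min at 37° C. Reactions were quenched with sodium carbonate and read by fluorescence (Ex 355/Em 448 nm).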

The nature of data set [3]: HTP-analysis of supernatants pretreated with base (MUGal hydrolysis). As to conditions: activity of the variant/activity of Rd4BB (SEQ ID NO: 15); challenge at pH 9.65. The method, boiled down: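 GLA variants secreted from yeast INVSc1; culture supernatants pre-incubated with McIlvaine buffer pH 7.0–8.2 or 200 mM bicarbonate pH 9.1–9.7 at 37° C. for 1–18 h. Residual activity: MUGal (4 mM stock) hydrolysis at pH 4.3–4.8, 37° C., 30–180 min, carbonate quench; fluorescence Ex 355/Em 448 nm.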

Positions count from the first letter of the chain named.

B1: 434 (protein)
chain: LDNGLARTPTMGWLHWERFMCNLDCQEEPDSCISEKLFMEMAERMVSEGWKDAGYEYLCIDDCWMAPQRDSEGRLQADPQRFPHGIRQLANYVHSKGLKLGIYADVGNKTCAGFPGSFGYYDIDAQTFADWGVDLLKFDGCYCDSLENLADGYKHMSLALNRTGRSIVYSCEWPLYMWPFQKPNYTEIRQYCNHWRNFADIDDSWKSIKSILDWTSRNQERIVDVAGPGGWNDPDMLVIGNFGLSWDQQVTQMALWAIMAAPLFMSNDLDHISPQAKALLQDKDVIAINQDPLGKQGYQLRKGDNFEVWERPLSGDAWAVAIINRQEIGGPRSYTIPVASLGKGVACNPACFITQLLPVKRQLGFYNWTSRLKSHINPTGTVLLQLENTMQMSLKDLL
modifications: Synthetic Polypeptide sequence of Variant No. 434 of mature Human GLA
Turning to B1, the “Relative Activity of GLA Variants After No Challenge (NC)” value in data set [1] was “+ (0.5 to 1.5 relative activity over Rd4BB (SEQ ID NO: 15))”. In addition, in data set [2], the “Relative Activity of GLA Variants After Challenge at pH 3.7” value (“Relative Activity … at pH 3.7” for short) was “− (<0.5 relative activity over Rd4BB (SEQ ID NO: 15))”. In addition, the “Relative Activity of GLA Variants After Challenge at pH 9.65” value (shortened to “Relative Activity … at pH 9.65”) in data set [3] is recorded as “− (<0.5 relative activity over Rd4BB (SEQ ID NO: 15))”.

B2: 441 (protein)
chain: B1 chain with D270R, H271V
modifications: Synthetic Polypeptide sequence of Variant No. 441 of mature Human GLA
B2: in data set [1], the “Relative Activity of GLA Variants After No Challenge (NC)” value is reported as “+ (0.5 to 1.5 relative activity over Rd4BB (SEQ ID NO: 15))”. In addition, the “Relative Activity … at pH 3.7” value in data set [2] is given as “− (<0.5 relative activity over Rd4BB (SEQ ID NO: 15))”. Moreover, in data set [3], the “Relative Activity … at pH 9.65” value is “+ (0.5 to 1.5 relative activity over Rd4BB (SEQ ID NO: 15))”.

B3: 445 (protein)
chain: B1 chain with L263F, D270R
modifications: Synthetic Polypeptide sequence of Variant No. 445 of mature Human GLA
On to B3, for which the “Relative Activity of GLA Variants After No Challenge (NC)” value in data set [1] is listed as “+ (0.5 to 1.5 relative activity over Rd4BB (SEQ ID NO: 15))”. In data set [2], the “Relative Activity … at pH 3.7” value is recorded as “+ (0.5 to 1.5 relative activity over Rd4BB (SEQ ID NO: 15))”. Besides, the “Relative Activity … at pH 9.65” value in data set [3] is “− (<0.5 relative activity over Rd4BB (SEQ ID NO: 15))”.

B4: 436 (protein)
chain: B1 chain with D270R, H271G
modifications: Synthetic Polypeptide sequence of Variant No. 436 of mature Human GLA
Regarding B4, the “Relative Activity of GLA Variants After No Challenge (NC)” value in data set [1] was “+ (0.5 to 1.5 relative activity over Rd4BB (SEQ ID NO: 15))”. Also, in data set [2], the “Relative Activity … at pH 3.7” value is given as “− (<0.5 relative activity over Rd4BB (SEQ ID NO: 15))”. In data set [3], the “Relative Activity … at pH 9.65” value was “− (<0.5 relative activity over Rd4BB (SEQ ID NO: 15))”.

B5: 439 (protein)
chain: B1 chain with D270R, H271A
modifications: Synthetic Polypeptide sequence of Variant No. 439 of mature Human GLA
For the molecule B5, the “Relative Activity of GLA Variants After No Challenge (NC)” value in data set [1] is reported as “+ (0.5 to 1.5 relative activity over Rd4BB (SEQ ID NO: 15))”. Also, the “Relative Activity … at pH 3.7” value in data set [2] is recorded as “+ (0.5 to 1.5 relative activity over Rd4BB (SEQ ID NO: 15))”. In addition, the “Relative Activity … at pH 9.65” value in data set [3] is “+ (0.5 to 1.5 relative activity over Rd4BB (SEQ ID NO: 15))”.

B6: 442 (protein)
chain: B1 chain with L255A, D270R
modifications: Synthetic Polypeptide sequence of Variant No. 442 of mature Human GLA
In the case of B6, in data set [1], the “Relative Activity of GLA Variants After No Challenge (NC)” value is reported as “+ (0.5 to 1.5 relative activity over Rd4BB (SEQ ID NO: 15))”. Moreover, the “Relative Activity … at pH 3.7” value in data set [2] is “+ (0.5 to 1.5 relative activity over Rd4BB (SEQ ID NO: 15))”. In addition, in data set [3], the “Relative Activity … at pH 9.65” value is reported as “− (<0.5 relative activity over Rd4BB (SEQ ID NO: 15))”.

B7: 440 (protein)
chain: B1 chain with L263C, D270R
modifications: Synthetic Polypeptide sequence of Variant No. 440 of mature Human GLA
In the case of B7, the “Relative Activity of GLA Variants After No Challenge (NC)” value in data set [1] is listed as “+ (0.5 to 1.5 relative activity over Rd4BB (SEQ ID NO: 15))”. Also, in data set [2], the “Relative Activity … at pH 3.7” value is listed as “+ (0.5 to 1.5 relative activity over Rd4BB (SEQ ID NO: 15))”. Also, in data set [3], the “Relative Activity … at pH 9.65” value was “− (<0.5 relative activity over Rd4BB (SEQ ID NO: 15))”.

B8: 443 (protein)
chain: B1 chain with K206A, L255S, D270R
modifications: Synthetic Polypeptide sequence of Variant No. 443 of mature Human GLA
With B8, in data set [1], the “Relative Activity of GLA Variants After No Challenge (NC)” value was “+ (0.5 to 1.5 relative activity over Rd4BB (SEQ ID NO: 15))”. Besides, the “Relative Activity … at pH 3.7” value in data set [2] is given as “+++ (>2.5 relative activity over Rd4BB (SEQ ID NO: 15))”. The “Relative Activity … at pH 9.65” value in data set [3] was “− (<0.5 relative activity over Rd4BB (SEQ ID NO: 15))”.

B9: 437 (protein)
chain: B1 chain with L263E, D270R
modifications: Synthetic Polypeptide sequence of Variant No. 437 of mature Human GLA
Take B9: the “Relative Activity of GLA Variants After No Challenge (NC)” value in data set [1] is “+ (0.5 to 1.5 relative activity over Rd4BB (SEQ ID NO: 15))”. Besides, the “Relative Activity … at pH 3.7” value in data set [2] was “+ (0.5 to 1.5 relative activity over Rd4BB (SEQ ID NO: 15))”. In addition, the “Relative Activity … at pH 9.65” value in data set [3] is listed as “− (<0.5 relative activity over Rd4BB (SEQ ID NO: 15))”.

B10: 435 (protein)
chain: B1 chain with I258L, D270R
modifications: Synthetic Polypeptide sequence of Variant No. 435 of mature Human GLA
As to B10, the “Relative Activity of GLA Variants After No Challenge (NC)” value in data set [1] was “+ (0.5 to 1.5 relative activity over Rd4BB (SEQ ID NO: 15))”. Besides, the “Relative Activity … at pH 3.7” value in data set [2] was “++ (>1.5 to 2.5 relative activity over Rd4BB (SEQ ID NO: 15))”. In data set [3], the “Relative Activity … at pH 9.65” value was “− (<0.5 relative activity over Rd4BB (SEQ ID NO: 15))”.

B11: 365 (protein)
chain: B1 chain with S47N, D270R
modifications: Synthetic Polypeptide sequence of Variant No. 365 of mature Human GLA
Regarding B11, in data set [1], the “Relative Activity of GLA Variants After No Challenge (NC)” value was “+ (0.5 to 1.5 relative activity over Rd4BB (SEQ ID NO: 15))”. The “Relative Activity … at pH 3.7” value in data set [2] was “+ (0.5 to 1.5 relative activity over Rd4BB (SEQ ID NO: 15))”. In addition, in data set [3], the “Relative Activity … at pH 9.65” value was “+ (0.5 to 1.5 relative activity over Rd4BB (SEQ ID NO: 15))”.

B12: 444 (protein)
chain: B1 chain with M259W, D270R
modifications: Synthetic Polypeptide sequence of Variant No. 444 of mature Human GLA
For B12, in data set [1], the “Relative Activity of GLA Variants After No Challenge (NC)” value is on record as “+ (0.5 to 1.5 relative activity over Rd4BB (SEQ ID NO: 15))”. In addition, the “Relative Activity … at pH 3.7” value in data set [2] is listed as “− (<0.5 relative activity over Rd4BB (SEQ ID NO: 15))”. Also, the “Relative Activity … at pH 9.65” value in data set [3] is given as “+ (0.5 to 1.5 relative activity over Rd4BB (SEQ ID NO: 15))”.

Source of the values: patent US11278600B2, “Human alpha-galactosidase variants” (Codexis, Inc., priority 2014, dated 2022).
